Assay results: IntAct's records for PubMed 16628218

Biological target: T1, chio_human CHN2 (UniProt P52757)
T1 sequence: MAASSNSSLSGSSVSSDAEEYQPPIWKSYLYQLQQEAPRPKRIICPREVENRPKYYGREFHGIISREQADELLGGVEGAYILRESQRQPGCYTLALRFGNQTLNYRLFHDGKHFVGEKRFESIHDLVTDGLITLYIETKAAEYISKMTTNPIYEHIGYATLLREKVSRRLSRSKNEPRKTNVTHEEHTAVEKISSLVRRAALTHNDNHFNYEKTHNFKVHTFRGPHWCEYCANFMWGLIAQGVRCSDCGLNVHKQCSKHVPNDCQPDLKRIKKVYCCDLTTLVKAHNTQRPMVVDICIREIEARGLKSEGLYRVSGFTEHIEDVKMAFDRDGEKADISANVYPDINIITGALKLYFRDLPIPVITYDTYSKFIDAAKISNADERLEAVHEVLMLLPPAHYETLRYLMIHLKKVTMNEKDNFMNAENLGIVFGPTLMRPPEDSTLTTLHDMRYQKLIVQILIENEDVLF

Row | Substance | effect of a mutation on the interaction
1 | Ras-related C3 botulinum toxin substrate 1 (Homo sapiens) (from UniProt P63000) G12V | increasing interaction
2 | Ras-related C3 botulinum toxin substrate 1 (Homo sapiens) (from UniProt P63000) T17N | disrupting interaction
